Test [1] addresses h-PVRIG-mIgG2a Fc (mouse IgG2a Fc-tagged human PVRIG recombinant protein) (human; mouse) (UniProt Q6DKI7). Nature of the test: blocking ELISA (method of Example 2-3), human PVRL2 as the ligand that is blocked.
Test [2] has as its target h-PVRIG-his (his-tagged human PVRIG recombinant protein) (human) (UniProt Q6DKI7). Nature of the test: Fortebio BLI, antibody on Protein A sensor, his-tagged human PVRIG 64-4 nM, 1:1 fit.
Test [3] shares this target. As to the kind of experiment: ELISA, plate coated with PVRIG-his. In general terms: An ELISA detects its analyte on a solid surface through an enzyme-linked reagent.
Test [4] addresses h-PVRIG-mIgG2a Fc (mouse IgG2a Fc-tagged human PVRIG recombinant protein) (human; mouse) (UniProt Q6DKI7). Nature of the test: competition ELISA, coated h-PVRIG-mIgG2a Fc, his-tagged PVRL2 as the ligand that is blocked.
For test [5], the target named is h-PVRIG-his (his-tagged human PVRIG recombinant protein) (human) (UniProt Q6DKI7). As to the kind of experiment: ELISA, human PVRIG recombinant protein.
h-PVRIG-his (his-tagged human PVRIG recombinant protein) (human), sequence (Q6DKI7 41-171 limits assumed): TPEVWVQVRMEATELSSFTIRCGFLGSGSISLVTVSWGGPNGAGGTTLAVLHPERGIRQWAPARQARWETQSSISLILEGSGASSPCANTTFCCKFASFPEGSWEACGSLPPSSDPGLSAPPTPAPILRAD

h-PVRIG-mIgG2a Fc (mouse IgG2a Fc-tagged human PVRIG recombinant protein) (human; mouse), sequence (Q6DKI7 41-171 limits assumed): as above

B1: Tab5 (antibody, from another filing, V domains shown)
VH: EVQLVESGGGVVKPGGSLRLSCAASGFTFGTSSMNWVRQAPGKGLEWVAVISFDGTEIHYADSVKGRFTISRDNSKSTVFLQMNSLRPDDTALYYCAKGSGNIYFYSGMDVWGQGTTVTVSS
VL: DIQMTQSPSTLSASVGDRVTITCRAGQSISGWLAWFQQKPGKAPNLLIYETSTLESGVPSRFSGSGSGTEYTLTISSLQPDDFATYYCQQYYSYPLTFGQGTKVEIKR
The IC50 is the concentration needed to halve the response being measured. As usually defined, the Kd is the free concentration of one partner at which half of the binding sites on the other are occupied at equilibrium, for simple one-to-one binding. A word on the koff: it is a measure of how fast the partners let go of each other. A word on the kon: it is the second-order rate constant of association. One may read the EC50 as the concentration that produces a half-maximal response. Take B1: the results for the IC50 in test [1] and in test [4] were 0.964 nM and 1.16 nM, respectively. Also, the Kd in test [2] is 0.219 nM. Further, the koff in test [2] was determined as 1.61e-05 s⁻¹. Besides, the kon in test [2] came out at 737000 M⁻¹ s⁻¹. Also, the values for the EC50 in test [3] and in test [5] were 2.86 nM and 1.41 nM, respectively.
